One molecule from patent publication US20250161419A1, “SERPIN PEPTIDES AND METHODS OF USING THE SAME” (SERPIN PHARMA, LLC, priority 2022, published 2025) can be followed below.

The subject of one test is phospho-ERK1/2. As to the kind of experiment: Cell signaling analysis in PC12 cells, immunoblot of phospho-ERK1/2. The class given is cell-based, rat. The conditions noted are these: 48 h after transfection. The procedure:
Cell signaling analysis: Rat PC12 cells were purchased from ATCC (CRL-1721). PC12 cells were maintained in high glucose DMEM (Gibco, USA) containing 10% heat-inactivated FBS (Gibco, USA), 5% HyClone heat-inactivated horse serum (Cytiva, USA), penicillin (100 units/ml) and streptomycin ([…]) in 6-well plates that were pre-coated with 0.01 mg/ml type IV collagen (Sigma-Aldrich, St. Louis, MO, USA). Cells were transferred to serum-free medium (SFM) 4 h prior to adding effectors, and then treated with SP163M (2.4, 24 or 240 nM); EI-tPA (12 nM), NGF (0.36 nM), or vehicle (PBS) for 10 min. In some cases, cells were pre-incubated with the competitive antagonist of LRP1, GST-RAP (150 nM) for 15 min or electroporated using the Rat Neuron Nucleofector Amaxa Kit (Lonza Biosciences) and incubated with siRNA to silence LRP1 expression (siLRP1; M-094191-01-0010, Dharmacon) for 48 h. Control cells were transfected with non-targeting control (NTC) siRNA (NTC; D-001810-10-05, Dharmacon). […] Equal amounts of protein from cell lysates (20 μg), as determined by BCA Protein Assay (ThermoFisher Scientific, Waltham, MA, USA), were subjected to 10% SDS-PAGE and electro-transferred to nitrocellulose membranes. […]
(In general: In western blotting, separated proteins are transferred to a membrane and probed.)

Test [1] has as its system capsaicin induced acute pain-related behavior in mice. Briefly: Intraplantar capsaicin model of acute nociception. The conditions noted are these: male mice; SP163M 2 μg/g s.c. or EI-tPA 2 μg/g i.v. 1 h before capsaicin. Type of test: in vivo, mouse. The protocol:
For the capsaicin studies, male (n=41) and female (n=37) mice were acclimated to the behavior testing facility for at least 1 h. Capsaicin was dissolved in 20% (2-hydroxypropyl)-β-cyclodextrin (Sigma-Aldrich, St. Louis, MO, USA) solution. […] Subsequently, 10 μl of 2 μg/μl capsaicin solution was injected into the plantar area of left hind paw. Immediately after capsaicin injection, mice were placed in a plexiglass box. Two observers, blinded to treatments, recorded the time spent licking and flinching the left hind paw over 10 min.

B1: EI-tPA: Recombinant human enzymatically inactive tissue-type plasminogen activator, known LRP1 agonist (protein)
chain: SYQVICRDEKTQMIYQQHQSWLRPVLRSNRVEYCWCNSGRAQCHSVPVKSCSEPRCFNGGTCQQALYFSDFVCQCPEGFAGKCCEIDTRATCYEDQGISYRGTWSTAESGAECTNWNSSALAQKPYSGRRPDAIRLGLGNHNYCRNPDRDSKPWCYVFKAGKYSSEFCSTPACSEGNSDCYFGNGSAYRGTHSLTESGASCLPWNSMILIGKVYTAQNPSAQALGLGKHNYCRNPDGDAKPWCHVLKNRRLTWEYCDVPSCSTCGLRQYSQPQFRIKGGLFADIASHPWQAAIFAKHRRSPGERFLCGGILISSCWILSAAHCFQERFPPHHLTVILGRTYRVVPGEEEQKFEVEKYIVHKEFDDDTYDNDIALLQLKSDSSRCAQESSVVRTVCLPPADLQLPDWTECELSGYGKHEALSPFYSERLKEAHVRLYPSSRCTSQHLLNRTVTDNMLCAGDTRSGGPQANLHDACQGDSGGPLVCLNDGRMTLVGIISWGLGCGQKDVPGVYTKVTNYLDWIRDNMRP
On to B1, for which, in the test on phospho-ERK1/2, the “activation of ERK1/2 in cells transfected with LRP1-specific siRNA” value was “ERK1/2 was not activated” and the “activation of ERK1/2 in cells transfected with NTC siRNA” value was “robustly activated ERK1/2”. In test [1], the “capsaicin induced acute pain-related behavior (time spent licking over 10 min)” value is listed as “blocked the capsaicin induced acute pain-related behavior”.
